# From the DeepSol protein solubility set
# Assay: soluble on expression in E. coli; label from the status in PepcDB or PDB records
row,Sequence,soluble on expression in E. coli
1,GSSGSSGMQAGKPILYSYFRSSCSWRVRIALALKGIDYEIVPINLIKDGGQQFTEEFQTLNPMKQVPALKIDGITIVQSLAIMEYLEETRPIPRLLPQDPQKRAIVRMISDLIASGIQPLQNLSVLKQVGQENQMQWAQKVITSGFNALEKILQSTAGKYCVGDEVSMADVCLVPQVANAERFKVDLSPYPTISHINKELLALEVFQVSHPRRQPDTPAELRT,soluble
2,MGSDKIHHHHHHMDGVKCQFVNTNGITLHVAAAGREDGPLIVLLHGFPEFWYGWKNQIKPLVDAGYRVIAPDQRGYNLSDKPEGIDSYRIDTLRDDIIGLITQFTDEKAIVIGHDWGGAVAWHLASTRPEYLEKLIAINIPHPHVMKTVTPLYPPQWLKSSYIAYFQLPDIPEASLRENDYDTLDKAIGLSDRPALFTSEDVSRYKEAWKQPGALTAMLNWYRALRKGSLAEKPSYETVPYRMIWGMEDRFLSRKLAKETERHCPNGHLIFVDEASHWINHEKPAIVNQLILEYLKNQ,not soluble
3,MSVEASRTCFLIDSLLNKKPKEELETEEEDEEEDEEEELSSSEVTSENDMETESASSSASSVGQPKPDFSAFHKIFSNLDFAKLAAVKRNGHHQPMLFRPECFFPLELSKHLHLVQQTFQMNVLQNLGHTLPLPFVPMLKNVAPAQKRLNNKRASYVDHSQKGNLKKYRCDVCDKTFSRSNTLITHKRIHTGEKPFKCEHCGRAFRQPGNLTRHRLTHTTVKPYVCGLCDKAFNRASNLHTHMRTHTNV,not soluble
4,MVSSSSGLPSHRGPILSALYPGNGRGGYTASRGIHTSLLFRHRNAKLAWMIPRRLQPLLEARLEKVPVVVLTGPRQAGKTTLALEVAQRREALYLDLESEADRAKLSAPELYLEAHLGRLVILDEVHRMPGLFPLLRSLVDRARRRGLRNGLYLLLGSLAPEVSRQAGESLAGRASYLELSPFDLLEVGREAEPVLWLRGGFPESFLALEDEESFRWRMDFLRSYVEREIPLLGGRLPAEVLRRFLTMLAHLQGELLNASALARNLGLDGRTVNRYLDFLVDLYLLRRLPPLEANVGKRLVKSPKLYLRDSGLVHALLGIRTLEDLLAHPVVGRSYEGFVVENLLRVLPEGGEAYFYRTRAGAEVDLVLLLPGGRFWAVEVKRSLDPRPSRGFHEALKDLKPQEAFVIYPGGETFPVGEGVFAAPLGAVMERLWRG,soluble
5,GMANLLSTCTSESGNIQHISPQNAGWEYVGFDVWQLKAGESITLPSDERERCLVLVAGLASVKAADSFFYRIGQRMSPFERIPAYSVYLPHHTEAKVTAETDLELAVCSAPGFGELPVRLISPQEVGVEHRGKGRNQRLVHNILPDSQLADSLLVVEVYTNAGATSSWPAHKHDTAVEGQETYLEETYYHRFNPPQGFCLQRVYTDDRSLDECMAVYNRDVVKVPKGYHPVATIAGYDNYYLNVMAGPLRKWRFTWEENHAWINSPDYPR,soluble
6,MSLEYLLQAAGIPRSTFFYHQKRLSKPDKHAELKDAIRASFERNKHRYGYRRVLLDLRNQGWVVNHKLVYKLMCEMGLRAKIRQRRPYVSYTGTISHIADNKLDRKFTPDQPNTVFVSDVTEFRVAGRKVYLSPVMDLFDRSIVAHTVATSPSTALTTDSLSKAIAACEPEPGWMIHTDQGFQYQHASWRDLIGDNGGVQSMSRKANCYDNAVMENFFGHLKTEMYHGEVFDTVAEFNQVIDEYIQWYNTERIQQRLKGLTPMQYRNQTLEALTAEGHHHHHH,not soluble
7,SNAMLIIETLPLLRQHIRRLRQEGKRVALVPTMGNLHDGHMKLVDEAKARADVVIVSIFVNPMQFDRPDDLVRYPRTLQEDCEKLNKRKVDYVFAPAVEEIYPHGLEGQTYVDVPGLSTMLEGASRPGHFRGVSTIVSKLFNLIQPDIACFGEKDFQQLALIRKMVADMSYDIEIVGVPIIRAKDGLALSSRNAYLTAEQRKIAPGLYNVMNSIAEKLIAGNRELQEIIAIAEQELNEKGFRADDIQIRDADTLLELTETSKRAVILAAAWLGQARLIDNQSVTLAQ,soluble
8,MIEKVLVVVIIGVVGAYAQGSCRTDQHEMTCRGKNSLHDLKKDQDYLEVDTLNVHQAKLDLTDDLVPDGINLSHLTLLNATDNQITRIGRRGFDKIRNMQFLYLSINQISHSQPDPFQALEKLKRLEMNDALDGNMEEKSDMLRNFFHSKNSFVHLAQIELNKNKIEGIYPKTFCGIQGLQRLELSNNRIPSFDFARTCLKELKALMLAGNLIQKIPADIWDFLPSLSSLDISNNPIDCDCATIRLLSGDDVVFLNQADTKCASPPELEGKRIFELSRDYCKTTRNPRGKASFFQFLVLFVIAVGSEFLF,not soluble
9,RRHKNKNPFHFNSKRFQTLFKNQYGHVRVLQRFNKRSQQLQNLRDYRILEFNSKPNTLLLPHHADADYLIVILNGTAILTLVNNDDRDSYNLQSGDALRVPAGTTYYVVNPDNDENLRMITLAIPVNKPGRFESFFLSSTQAQQSYLQGFSKNILEASYDTKFEEINKVLFGREEGQQQGEERLQESVIVEISKKQIRELSKHAKSSSRKTISSEDKPFNLRSRDPIYSNKLGKLFEITPEKNPQLRDLDVFLSVVDMNEGALFLPHFNSKAIVVLVINEGEANIELVGIKEQQQRQQQEEQPLEVRKYRAELSEQDIFVIPAGYPVVVNATSDLNFFAFGINAENNQRNFLAGSKDNVISQIPSQVQELAFPGSAKDIENLIKSQSESYFVDAQPQQKEEGNKGRKGPLSSILRAFY,soluble
10,MAHHHHHHMDSEKNSPLEYQETMNDLGEDIEDMEAQSINHGEAKMSVDIKSGKGDKGGEEVDVADAENVESNADNALYIYSTDSAKNILKENLEDYLKQLDFYKSNPKCKIDPAIYMEGTEEVENYVVKEKILITTYYQYIDMYESSIDVEEDLEREEIVYVEVPKYIIKYNPKVITNYIEKTIEVPSGEEIKRPVYKKLNVPYVVPHVVENETQVVLKKIVQPEIHTSNEEIEVEVQKYVPRLVPVNVYVPRYFGLSAKTTDEVEESVHYADLTQEQTDYLMKELNPHLDDLKKFNEEQLERMNEYIRESAQQAESHDLNPPKPELVSYDLDGSIQTLDYSDFTQFKEICQRELTC,soluble
11,MPIPAPSPDARAVVTGASQNIGAALATELAARGHHLIVTARREDVLTELAARLADKYRVTVDVRPADLADPQERSKLADELAARPISILCANAGTATFGPIASLDLAGEKTQVQLNAVAVHDLTLAVLPGMIERKAGGILISGSAAGNSPIPYNATYAATKAFVNTFSESLRGELRGSGVHVTVLAPGPVRTELPDASEASLVEKLVPDFLWISTEHTARVSLNALERNKMRVVPGLTSKAMSVASQYAPRAIVAPIVGAFYKRLGGS,not soluble
12,GPLGSPEFPGRRKPEAQPFAHLTINAASIPSGSHKVTLSSWYHDRGWAKISNMTLSNGKLRVNQDGFYYLYANICFRHHETSGSVPTDYLQLMVYVVKTSIKIPSSHNLMKGGSTKNWSGNSEFHFYSINVGGFFKLRAGEEISIQVSNPSLLDPDQDATYFGAFKVQDID,soluble
13,AIASGAYDESAMSDETTDSFWEVGNYKRTVKRIEDGHRLCNDMMSCIQERAKIEKAYSQQLTDWSKRWRQLVERGPQYGTLERAWLAVMTEAEKVSELHQEVKNNLLNEDLEKVKNWQKDAYHKQMMGGFKETKEADEGFRKAQKPWAKKLKELETAKKTYHMACKEEKIASAREANSKGEASVTTDQQKKLQEKVDKCKNDVQKAKEKYEKSLDELNKCTPQYMENMEVVFDQCQQFEEKRLNFLREVLLDTKRHLNLTESQSYATVYRELERTIVSASAQEDLKWFSSVHGPGMHMNWPQFEEFNPDLSHAISKKEKVKRNHDGVTLTQVTHGAEHGTPQTGDRGSVSSYEKNQQYSAEWSDDEQPPTAAQSASETNGGNPFEEDSKGVRVRALYDYEGQEQDELTFKAGDELTKLEDEDEQGWCKGRLDSGQLGLYPANYVEPV,soluble
14,MGSDKIHHHHHHMIINRSCLKEFAEKVHFLPSSLTKSDLLTDPFRLHQENELGIYYSPHNEFINRDASLVIAGITPGFSQMKTAYETAAESLLQGGTLEQMAVDTKIAAGFSGSMRHNLITMLDLCGLPQAFGIQSAAKLFGELRHMLHTTSVIKYPVFIQQKNYTGYKPAITHSPILSTYAFGHFPAELNHVTGPALLIPLGKAAETVCETLIRQHSLQNLICLNGFPHPSGANGHRLKQFSKNKEQLERQIRSFAALVDFAIEKRK,not soluble
15,MKEACSSSSHVPVSDSKYILKSELLSLLKTYNCYHEGRSFQLRHREEEGTLIIEGLLNIAWGLRRPIRLQMQDDRERVHLPSATWVPERLSYLQKEASPQDSKVPTEEPGTQPANKAEVSGDSSGALEGEEEEVPQLMRTKSDASCIIQRRSKSRAPSEAQKIRRHRFSINGHFYNHKVKSPSALSWALKLRVQELFPSTEERAPNIQHSSHSSIR,soluble
